Series [1] can be described thus: Western blot and immunostaining, transduced MEFs. The following applies: glycan lost; control: OSFLAG-WTKM. (In general: Immunoblotting shows a protein as a band on a membrane.)
A short description of series [2]: immunofluorescence, mESCs. The following applies: glycan lost; control: fSOX2-Tg mESCs.
Series [3] is described as follows: label-free LC-MS of TAD peptide. As to conditions: glycan lost; control: fSOX2-Tg mESCs.
Series [4] in a line: FLAG immunofluorescence, MEFs day 6. The following applies: glycan lost; control: OSFLAG-WTKM.
The next series can be described thus: Western blot, mESCs. The following applies: glycan lost; control: fSOX2-Tg mESCs.

Chain of SOX2: S248A (chain, as listed by the source S248A): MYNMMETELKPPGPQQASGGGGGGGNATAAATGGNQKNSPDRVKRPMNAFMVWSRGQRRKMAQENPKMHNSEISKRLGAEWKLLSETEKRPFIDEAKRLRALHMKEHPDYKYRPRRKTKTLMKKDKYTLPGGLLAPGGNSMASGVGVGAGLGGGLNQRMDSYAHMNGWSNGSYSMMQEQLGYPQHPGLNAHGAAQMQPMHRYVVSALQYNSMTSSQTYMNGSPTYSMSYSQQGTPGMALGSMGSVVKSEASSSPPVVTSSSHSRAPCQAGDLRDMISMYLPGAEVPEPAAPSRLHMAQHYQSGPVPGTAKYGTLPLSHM

As for SOX2: S248A, the expression_or_secretion result in series [1] is recorded as “no change”; in “Western blot, mESCs”, “no change”. In addition, the localisation_or_trafficking entry in series [2] and in series [4] was “no change” in each case. Moreover, the “other: phosphorylation at S253, other: % of total TAD peptide” value in series [3] was “increases, 18.7 vs 10.9”.

The values are drawn from paper PMC4841768.
